Data reported in publication PMC13136903, “Zα and Zβ domains of ADAR1 and ZBP1 bind G-quadruplexes with nanomolar affinities, establishing Zβ as a G-quadruplex-specific domain”.

Columns and labels:
[1] = tested on: GV2 Zα (giant virus Zα domain) (giant virus (metagenome)); experiment: MST; details: 20 mM NaPi pH 6.4, 100 mM KCl, 1 mM DTT, 0.5 mM EDTA (LiCl replaces KCl where noted); ITC 35 C; MST 25 C with 20 nM protein (labelling without DTT; competition …)
[2] = target: T1, ADAR1 Zα (Homo sapiens, UniProt P55265 139-202); experiment: NMR; extensive peak shifts; 20 mM NaPi pH 6.4, 100 mM KCl, 1 mM DTT, 0.5 mM EDTA (LiCl replaces KCl where noted); ITC 35 C; MST 25 C with 20 nM protein (labelling without DTT); competition; details: protein: recombinant; tags: N-terminal 6xHis, thrombin site, T7 tag; no G4; transient structure
T1 sequence: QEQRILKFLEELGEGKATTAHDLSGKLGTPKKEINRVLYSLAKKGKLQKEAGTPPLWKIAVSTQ

[3] = target: T2, ADAR1 Zβ (Homo sapiens, UniProt P55265 291-366); experiment: MST; ligand-depletion range, may not be exact; 20 mM NaPi pH 6.4, 100 mM KCl, 1 mM DTT, 0.5 mM EDTA (LiCl replaces KCl where noted); ITC 35 C; MST 25 C with 20 nM protein (labelling without DTT); competition; details: protein: recombinant; tags: N-terminal 6xHis, thrombin site, T7 tag; parallel G4
T2 sequence: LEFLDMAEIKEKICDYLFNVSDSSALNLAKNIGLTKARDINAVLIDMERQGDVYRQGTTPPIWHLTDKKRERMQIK

[4] = target: T1, ADAR1 Zα; experiment: MST; 20 mM NaPi pH 6.4, 100 mM KCl, 1 mM DTT, 0.5 mM EDTA (LiCl replaces KCl where noted); ITC 35 C; MST 25 C with 20 nM protein (labelling without DTT); competition; details: protein: recombinant, tags: N-terminal 6xHis, thrombin site, T7 tag
[5] = target: T2, ADAR1 Zβ; experiment: as above; details: protein: recombinant; tags: N-terminal 6xHis, thrombin site, T7 tag; parallel G4
[6] = target: T2, ADAR1 Zβ; experiment: ITC; 35 C; N=1.12; 20 mM NaPi pH 6.4, 100 mM KCl, 1 mM DTT, 0.5 mM EDTA (LiCl replaces KCl where noted); ITC 35 C; MST 25 C with 20 nM protein (labelling without DTT); competition; details: protein: recombinant; tags: N-terminal 6xHis, thrombin site, T7 tag; parallel G4
[7] = target: T1, ADAR1 Zα; experiment: ITC; 35 C; N=1.44; 20 mM NaPi pH 6.4, 100 mM KCl, 1 mM DTT, 0.5 mM EDTA (LiCl replaces KCl where noted); ITC 35 C; MST 25 C with 20 nM protein (labelling without DTT); competition; details: protein: recombinant; tags: N-terminal 6xHis, thrombin site, T7 tag; chain copies: 2; parallel G4
[8] = target: T3, ZBP1 Zα1 (Homo sapiens, UniProt Q9H171 1-70); experiment: NMR; significant peak disappearance; LLPS; 20 mM NaPi pH 6.4, 100 mM KCl, 1 mM DTT, 0.5 mM EDTA (LiCl replaces KCl where noted); ITC 35 C; MST 25 C with 20 nM protein (labelling without DTT); competition; details: protein: recombinant; tags: N-terminal 6xHis, thrombin site, T7 tag; parallel G4
T3 sequence: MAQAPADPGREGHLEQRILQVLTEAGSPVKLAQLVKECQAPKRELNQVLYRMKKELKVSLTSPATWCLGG

[9] = target: T1, ADAR1 Zα; experiment: NMR; 30 µM RNA; CSPs similar to UUACCG at 100 µM; 20 mM NaPi pH 6.4, 100 mM KCl, 1 mM DTT, 0.5 mM EDTA (LiCl replaces KCl where noted); ITC 35 C; MST 25 C with 20 nM protein (labelling without DTT); competition; details: protein: recombinant; tags: N-terminal 6xHis, thrombin site, T7 tag; predominantly single strand at 30 µM
[10] = target: T2, ADAR1 Zβ; experiment: NMR; 100 µM RNA; large CSP increase; 20 mM NaPi pH 6.4, 100 mM KCl, 1 mM DTT, 0.5 mM EDTA (LiCl replaces KCl where noted); ITC 35 C; MST 25 C with 20 nM protein (labelling without DTT); competition; details: protein: recombinant; tags: N-terminal 6xHis, thrombin site, T7 tag
[11] = target: T1, ADAR1 Zα; experiment: NMR; 100 µM RNA; CSPs similar to ssUUAGGG; 20 mM NaPi pH 6.4, 100 mM KCl, 1 mM DTT, 0.5 mM EDTA (LiCl replaces KCl where noted); ITC 35 C; MST 25 C with 20 nM protein (labelling without DTT); competition; details: protein: recombinant; tags: N-terminal 6xHis, thrombin site, T7 tag; chain copies: 2

Molecule: GGGAGGGCGGGAGGG [ALU-GQRNA]
- Kd [1]: 1000 nM

Molecule: CCGACCGCCCGACCG (ssRNA) [ALU-mutRNA]
- binding result [2]: binds

Molecule: UUAGGGUUAGGGUUAGGGUUAGGG (structured_RNA) [TERRA-GQRNA]
- Kd [3]: 4.2 ± 2.2 nM
- Kd ([4]; chain copies: 2, parallel G4): 19.3 ± 13.7 nM

Molecule: UUACCGUUACCGUUACCGUUACCG (ssRNA) [TERRA-mutRNA]
- Kd ([4]; no G4, transient structure): 35.9 ± 8.9 nM

Molecule: GGGAGGGCGGGAGGG (structured_RNA) [ALU-GQRNA]
- Kd ([4]; chain copies: 2, parallel G4): 116 ± 69.3 nM
- Kd [5]: 336 ± 181 nM
- Kd [6]: 1810 ± 300 nM
- Kd [7]: 430 ± 100 nM
- binding result [8]: binds

Molecule: UUAGGG (ssRNA) [ssUUAGGG 6-mer (30 µM)]
- binding result [9]: binds

Molecule: UUAGGG (structured_RNA) [GQ-UUAGGG 6-mer (100 µM)]
- binding result [10]: binds
- binding result [11]: binds
